Results on two molecules are retold here after article PMC7506551, “A heterotrimeric SMARCB1–SMARCC2 subcomplex is required for the assembly and tumor suppression function of the BAF chromatin-remodeling complex” (Cell Discovery, 2020).

Assay [1] deals with T1, SWIRM domain of SMARCC2 (aa 423–518) (human, UniProt Q8TAQ2 423-518).
T1 construct: SMARCC2/BAF170, human, SWIRM domain, residues 423-518; also called SMARCC2^(423–518); SMARCC2^SWIRM
In words: ITC; conditions not shown; two-site binding model for SMARCC2 325-518 with SMARCB1 169-385. The following applies: both partners purified. (In ITC the heat of successive injections is recorded.)

For assay [2], the target named is T2, SMARCB1 (aa 169–385) (human, UniProt Q12824 169-385).
T2 construct: SMARCB1/BAF47/INI1/SNF5, human, residues 169-385, holds the Rpt1 and Rpt2 motifs; resolved 184-356 in the crystal; they may stand in the supplementary information; also called SMARCB1^(169–385); BAF47
Described as above. The following applies: both partners purified.

B1: isolated Rpt1 motif of SMARCB1 (domain or fragment)
chain: DDHDPAVIHENASQPEVLVPIRLDMEIDGQKLRDAFTWNMNEKLMTPEMFSEILCDDLDLNPLTFVPAIASAIRQQIESYPTDS
As usually defined, the Kd is a measure of binding affinity in units of concentration. Read a low Kd as higher affinity. Take B1: the Kd in assay [1] was about 120 nM.

B2: SMARCC2 (aa 325–518) (domain or fragment, human, UniProt Q8TAQ2 325-518, looked up)
chain: TKSKRGHREEEQEDLTKDMDEPSPVPNVEEVTLPKTVNTKKDSESAPVKGGTMTDLDEQEDESMETTGKDEDENSTGNKGEQTKNPDLHEDNVTEQTHHIIIPSYAAWFDYNSVHAIERRALPEFFNGKNKSKTPEIYLAYRNFMIDTYRLNPQEYLTSTACRRNLAGDVCAIMRVHAFLEQWGLINYQVDAES
notes: SMARCC2/BAF170, human, residues 325-518, holds the SWIRM domain; resolved 423-514 in the crystal, residues 325-422 possibly degraded during crystallization; Two copies stand in the heterotrimer with one SMARCB1 169-385; also called SMARCC2^(325–518); BAF170
Take B2: the “Kd of one of the two sites (two-site binding model)” value in assay [2] worked out at 112 nM.
